The data set concerns Bovine factor Xa. In words: Determination of anti-factor Xa activity in buffer (microtiter plate method, AT-III mediated). Particulars: Kabi buffer, human AT-III. The data set is classed as biochemical. The source says: II. Determination of Anti-Factor Xa Activity in Buffer
(Microtiter Plate Method)
Anticoagulants can inhibit Xa directly or, like heparin, by potentiating the inhibitory activity of AT-III. Anti-Xa activity can be assessed by determination of the rate of hydrolysis of the chromogenic substrate S-2222 in the presence of AT-III. This assay is used to determine anti-Xa activity of heparinoid preparations in Kabi buffer.
Test medium: Kabi buffer.
Ref. compound: International standard heparin (11.4 anti-Xa U/mg).
Composition of the buffer: NaCl 10.17 g (174 mmol); edetate disodium dihydrate 3.26 g (9.6 mmol); tromethamine (Tris) 6.11 g (50.4 mmol); made up to 1 L with ultrapure H2O *. The pH of the solution is adjusted to 7.4 with hydrochloric acid (0.10 mol/L)
Bovine factor Xa (Kabi Diagnostica, Stockholm, Sweden) is dissolved in Kabi buffer to give a solution containing 1.5 U/mL (0.75 nKat/mL). • 3. S-2222 solution
S-2222 (Kabi Diagnostica) is dissolved in ultrapure H2O to give a solution containing 0.375 mg/mL (0.5 mmol/L). • 4. AT-III solution
Human AT-III (Kabi Diagnostica) is dissolved in Kabi buffer to give a solution containing 0.25 U/mL. A fresh solution has to be prepared daily. • 5. Standard solution of the calibration sample
Standard heparin is dissolved in Kabi buffer to give a standard solution containing approx. 0.25 anti-Xa U/mL.
Each preparation is dissolved in ultrapure H2O and diluted with Kabi buffer to the required concentrations in the range of 0.02-0.2 anti-Xa U/mL
Each test sample (0.05 mL) is pipetted into a well of a microtiter plate at RT. AT-III solution (0.05 mL) is added to each sample and the plate is shaken using a Vari-shaker.
An aliquot of Xa solution (0.05 mL) is pipetted into each well 10 min following addition of AT-III solution and the plate is shaken again. Exactly 2 min following addition of Xa solution, 0.1 mL S-2222 solution is pipetted into each well and the plate is shaken again. For all additions a 12-channel pipette is used.
The remaining amount of Xa catalyses the hydrolysis of S-2222, the rate of which is measured photometrically following incubation periods of 2 and 22 min respectively at RT. The absorbance of each sample is measured at 405 nm using a Reader Microelisa, model 310C (Organon Teknika, Oss, The Netherlands) and the increase in absorbance (ΔOD) is calculated. Each test sample is determined in duplicate. With every 10 samples, a blank (0.05 mL Kabi buffer) is included.
From an aliquot of the standard solution of the calibration sample a range of dilutions is made (dilution factor 1,3 for heparin samples). The resulting standard samples (approx. 15 samples) should contain between 0.01-0.25 anti-Xa U/mL. […]
For each sample the mean anti-Xa activity in U/mL is determined using the calibration curve. […]

These results are taken from patent publication US7576071B2, “Antithrombotic compound” (sanofi-aventis, priority 2004, dated 2009).

Regarding “Methyl O-2,3-di-O-methyl-4-O-<<12-N-<N-(3-keto-benzenesulfonyl)-4-O-{4-(4-piperidinyl)-butyl}-L-tyrosine>-12-aza-3,6,9-trioxa-dodecyl>>-6-O-sulfo-alpha-D-glucopyranosyl-(1->4)-O-2,3-di-O-methyl-beta-D-glucopyranuronosyl-(1->4)-O-2,3,6-tri-O-sulfo-alpha-D-glucopyranosyl-(1->4)-O-2,3-di-O-methyl-alpha-L-idopyranuronosyl-(1>4)-3-O-methyl-2,6-di-O-sulfo-alpha-D-glucopyranoside octakis sodium salt [XIV]”, the Anti-Xa activity is, setting by setting: (substrate S-2222, calibrated against standard heparin) 735 ± 107 U/mg; (substrate S-2222, per nmol (from U/mg and Mw)) 1.68 U/nmol.
